The target in one assay is HLA-A*02:03. Put plainly: IEDB peptide-MHC binding, purified MHC/competitive/radioactivity; filed as Kd, often an IC50 or EC50 that approximates it; ≥ and ≤ were set here for values at or beyond the usual limits of such assays.
Another assay has as its target HLA-A*02:02. The description is as above.
For another assay, the target named is HLA-A*02:06. The assay is described as above.
In another assay the target is HLA-A*26:01. Described as above.
A further assay concerns the target HLA-A*68:01. The assay is described as above. Conditions: source organism: Dengue virus 2 Jamaica/1409/1983.
A further assay has as its target HLA-B*58:01. Put plainly: IEDB peptide-MHC binding, purified MHC/direct/fluorescence; filed as Kd, often an IC50 or EC50 that approximates it; ≥ and ≤ were set here for values at or beyond the usual limits of such assays. The conditions noted are these: source organism: Mycobacterium tuberculosis.
The target of the next assay is HLA-A*30:02. Put plainly: IEDB peptide-MHC binding, purified MHC/competitive/radioactivity; filed as Kd, often an IC50 or EC50 that approximates it; ≥ and ≤ were set here for values at or beyond the usual limits of such assays.
Another assay addresses HLA-B*15:01. Put plainly: IEDB peptide-MHC binding, purified MHC/direct/fluorescence; filed as Kd, often an IC50 or EC50 that approximates it; ≥ and ≤ were set here for values at or beyond the usual limits of such assays.
Assay [1] has as its target HLA-A*01:01. Put plainly: IEDB peptide-MHC binding, purified MHC/competitive/radioactivity; filed as Kd, often an IC50 or EC50 that approximates it; ≥ and ≤ were set here for values at or beyond the usual limits of such assays. Conditions: source organism: Dengue virus 2 Jamaica/1409/1983.
For assay [2], the target named is HLA-A*01:01. Put plainly: IEDB peptide-MHC binding, purified MHC/direct/fluorescence; filed as Kd, often an IC50 or EC50 that approximates it; ≥ and ≤ were set here for values at or beyond the usual limits of such assays. The conditions noted are these: source organism: Homo sapiens.
The target of a further assay is HLA-A*02:01. The assay is described as above. Conditions: source organism: Homo sapiens.
The target in another assay is HLA-A*23:01. Put plainly: IEDB peptide-MHC binding, purified MHC/competitive/radioactivity; filed as Kd, often an IC50 or EC50 that approximates it; ≥ and ≤ were set here for values at or beyond the usual limits of such assays. Conditions: source organism: Dengue virus 1 Brazil/97-11/1997.
The mark [3] stands for this setting: source organism: SARS coronavirus Tor2.
[4] abbreviates: source organism: Dengue virus 2 Jamaica/1409/1983.
The mark [5] stands for this setting: source organism: Dengue virus 3 Martinique/1243/1999.
Setting [6] is: source organism: Vaccinia virus WR.
Where [7] appears, read: source organism: Mammarenavirus brazilense.
The mark [8] stands for this setting: source organism: Mammarenavirus whitewaterense.

pKd: −log10 of the molar value.

Turning to WLLWPVTLA, the pKd with HLA-A*02:03 (setting [3]) was 8.92; in the assay with HLA-A*02:02 (setting [3]), 7.93; with HLA-A*02:06 (setting [3]), 7.76.

Consider ETAECPNTNR, for which the pKd with HLA-A*26:01 (setting [4]) is 4.98; with HLA-A*68:01 it was 7.86.

The sequence GGTPAVEEW had a pKd with HLA-B*58:01 of 6.70.

For IWYMWLGARY, the pKd with HLA-A*30:02 (setting [5]) is 8.49.

Take EMKYALINL: the results for the pKd with HLA-A*02:03 (setting [6]), with HLA-A*02:02 (setting [6]) and in the assay with HLA-A*02:06 (setting [6]) were 7.20, 5.51 and ≤ 4.11, respectively.

With TTIAVSMAN, in the assay with HLA-A*26:01 (setting [4]), the pKd is 5.29.

For the sequence GVKGFSFKY, the pKd with HLA-B*15:01 (source organism: Influenza A virus (A/eka/Thailand/EkA1NRC/2004(H5N1))) was ≤ 4.70.

In the case of LIGNEEYTDY, the pKd with HLA-A*01:01 [1] was 5.97.

Consider IVSLCPTKKL, for which the pKd is 7.53 in the assay with HLA-A*02:03 (setting [6]), 8.02 in the assay with HLA-A*02:02 (setting [6]) and ≤ 4.55 in the assay with HLA-A*02:06 (setting [6]).

In the case of ENPYRTWAY, the pKd with HLA-A*26:01 (source organism: Dengue virus 4 Philippines/H241/1956) was 5.36.

Turning to GVPLLALGCY, the pKd with HLA-A*30:02 (source organism: Dengue virus 1 Brazil/97-11/1997) is 7.42.

TILATLNTL: the pKd is 7.47 with HLA-A*02:03 (setting [6]), 6.62 with HLA-A*02:02 (setting [6]) and 7.59 with HLA-A*02:06 (setting [6]).

In the case of TLILAGVSLL, in the assay with HLA-A*26:01 (setting [5]), the pKd was 5.17.

For VMDKNHAIFT, the results for the pKd with HLA-A*02:03 (setting [6]), with HLA-A*02:02 (setting [6]) and with HLA-A*02:06 (setting [6]) were 4.94, 4.73 and ≤ 4.16, respectively.

As to VVISVIFYFI, the figures for the pKd with HLA-A*02:03 (setting [6]), with HLA-A*02:02 (setting [6]) and with HLA-A*02:06 (setting [6]) were 6.12, 6.62 and 6.27, respectively.

Turning to LNISGYNYSL, the pKd is ≤ 4.31 in the assay with HLA-A*02:03 (setting [7]), 7.11 with HLA-A*02:02 (setting [7]) and 5.96 with HLA-A*02:06 (setting [7]).

For the sequence WLKDSAIMVA, the pKd with HLA-A*02:03 (setting [6]) was 5.88; with HLA-A*02:02 (setting [6]) it was 7.83; in the assay with HLA-A*02:06 (setting [6]), 5.32.

Take DVERLQMAGV: the results for the negative logarithm of the Kd (pKd) in the assay with HLA-A*02:03 (setting [6]), in the assay with HLA-A*02:02 (setting [6]) and with HLA-A*02:06 (setting [6]) were 6.98, 6.67 and 6.11, respectively.

Turning to GLVDVCFWS, the pKd with HLA-A*02:03 (setting [8]) was 5.97; with HLA-A*02:02 (setting [8]) it was 6.94; with HLA-A*02:06 (setting [8]), 6.27.

As to VVIVENDNV, the pKd is ≤ 4.42 with HLA-A*02:03 (setting [6]), 4.88 in the assay with HLA-A*02:02 (setting [6]) and 5.37 with HLA-A*02:06 (setting [6]).

Turning to RILSEKRKDT, the pKd is 5.38 with HLA-A*02:03 (setting [6]), 6.15 in the assay with HLA-A*02:02 (setting [6]) and 5.16 with HLA-A*02:06 (setting [6]).

As for GIKNLKSLL, the pKd in the assay with HLA-A*02:03 (setting [6]) was 5.58; with HLA-A*02:02 (setting [6]), 5.67; with HLA-A*02:06 (setting [6]) it was ≤ 4.21.

Take LVFLWLLWPV: the results for the pKd with HLA-A*02:03 (setting [3]), in the assay with HLA-A*02:02 (setting [3]) and with HLA-A*02:06 (setting [3]) were 8.71, 9.03 and 9.25, respectively.

For the sequence RTMPNESRV, the figures for the negative logarithm of the Kd (pKd) with HLA-A*02:03 (setting [6]), with HLA-A*02:02 (setting [6]) and with HLA-A*02:06 (setting [6]) were 7.00, 6.85 and 6.81, respectively.

In the case of YLDFGGPEG, the pKd is 5.61 in the assay with HLA-A*01:01 [2] and 5.82 in the assay with HLA-A*02:01.

In the assay with HLA-B*15:01 (source organism: Mycobacterium tuberculosis C), LLWYRRGTF had a pKd of 6.44.

For the sequence VLQQNNSFII, the pKd was 5.99 with HLA-A*02:03 (setting [6]), 6.18 in the assay with HLA-A*02:02 (setting [6]) and 5.02 in the assay with HLA-A*02:06 (setting [6]).

Regarding TIAGGVCYYL, the figures for the pKd in the assay with HLA-A*02:03 (setting [6]), with HLA-A*02:02 (setting [6]) and with HLA-A*02:06 (setting [6]) were 7.46, 10.44 and 8.40, respectively.

In the case of SIAMLKSKNI, the negative logarithm of the Kd (pKd) with HLA-A*02:03 (setting [6]) is 7.26; with HLA-A*02:02 (setting [6]) it was 5.96; in the assay with HLA-A*02:06 (setting [6]), 6.59.

Turning to LVAEHRFENM, the results for the pKd with HLA-A*02:03 (setting [6]), with HLA-A*02:02 (setting [6]) and in the assay with HLA-A*02:06 (setting [6]) were 6.34, 5.69 and 6.14, respectively.

For the sequence MIIGEPIIVA, the results for the pKd with HLA-A*02:03 (setting [6]), in the assay with HLA-A*02:02 (setting [6]) and with HLA-A*02:06 (setting [6]) were 6.95, 7.38 and 6.91, respectively.

For the sequence SFGCKPLTMF, the pKd with HLA-A*23:01 was 6.99.

DLLNVTYNI: the pKd was 6.71 with HLA-A*02:03 (setting [6]), 6.53 with HLA-A*02:02 (setting [6]) and 5.89 with HLA-A*02:06 (setting [6]).

In the case of ALYSPPLISI, the figures for the pKd in the assay with HLA-A*02:03 (setting [6]), in the assay with HLA-A*02:02 (setting [6]) and with HLA-A*02:06 (setting [6]) were 6.82, 8.85 and 6.79, respectively.

In the case of FIVYGRSNA, the results for the pKd with HLA-A*02:03 (setting [6]), in the assay with HLA-A*02:02 (setting [6]) and in the assay with HLA-A*02:06 (setting [6]) were 6.43, 5.22 and 5.06, respectively.

For orientation: pKd means the negative decadic logarithm of the Kd, by convention in mol/L.
